The values that follow come from publication PMC6570480, “PLK4 promotes centriole duplication by phosphorylating STIL to link the procentriole cartwheel to the microtubule wall” (eLife, 2019).

In one assay the target is DmSas4. Put plainly: co-IP, immunoblot. The note with it: reference: WT Ana2, no DmPLK4SBM-mCherry; sites S38. On the technique in general: In western blotting, separated proteins are transferred to a membrane and probed.
The target of assay [1] is CPAP TCP domain, 1142-1338 (UniProt Q9HC77). Put plainly: GST pull-down, immunoblot. As to conditions: sites S428.
Assay [2] addresses CPAP (UniProt Q9HC77). The experiment in a line: immunofluorescence co-localisation at GFP-STIL/PLK4 foci. As to conditions: reference: WT Myc-GFP-STIL; sites S428.
The target in assay [3] is CPAP (UniProt Q9HC77). Put plainly: GFP-binding-protein co-IP, immunoblot. The note with it: sites S428.
The target in assay [4] is T1, Recombinant full-length GST-STIL (WT) phosphorylated in vitro by the His-PLK4 kinase domain (human, UniProt Q15468 1-1287, phosphoserine at 428 and phosphorylation at multiple other sites (84 in vitro phosphorylation sites identified on STIL), by the 6xHis-PLK4 kinase domain).
T1 construct: STIL, human, full length; also called GST-hSTIL; phosphorylated WT GST-STIL; source: SF9 insect cells (Bac-to-Bac), purified (Glutathione Sepharose); phosphorylated on beads by 6xHis-hPlk4 (a.a. 1–416) with ATP; not shown: GST, N-terminal, kept
T1 sequence (looked up): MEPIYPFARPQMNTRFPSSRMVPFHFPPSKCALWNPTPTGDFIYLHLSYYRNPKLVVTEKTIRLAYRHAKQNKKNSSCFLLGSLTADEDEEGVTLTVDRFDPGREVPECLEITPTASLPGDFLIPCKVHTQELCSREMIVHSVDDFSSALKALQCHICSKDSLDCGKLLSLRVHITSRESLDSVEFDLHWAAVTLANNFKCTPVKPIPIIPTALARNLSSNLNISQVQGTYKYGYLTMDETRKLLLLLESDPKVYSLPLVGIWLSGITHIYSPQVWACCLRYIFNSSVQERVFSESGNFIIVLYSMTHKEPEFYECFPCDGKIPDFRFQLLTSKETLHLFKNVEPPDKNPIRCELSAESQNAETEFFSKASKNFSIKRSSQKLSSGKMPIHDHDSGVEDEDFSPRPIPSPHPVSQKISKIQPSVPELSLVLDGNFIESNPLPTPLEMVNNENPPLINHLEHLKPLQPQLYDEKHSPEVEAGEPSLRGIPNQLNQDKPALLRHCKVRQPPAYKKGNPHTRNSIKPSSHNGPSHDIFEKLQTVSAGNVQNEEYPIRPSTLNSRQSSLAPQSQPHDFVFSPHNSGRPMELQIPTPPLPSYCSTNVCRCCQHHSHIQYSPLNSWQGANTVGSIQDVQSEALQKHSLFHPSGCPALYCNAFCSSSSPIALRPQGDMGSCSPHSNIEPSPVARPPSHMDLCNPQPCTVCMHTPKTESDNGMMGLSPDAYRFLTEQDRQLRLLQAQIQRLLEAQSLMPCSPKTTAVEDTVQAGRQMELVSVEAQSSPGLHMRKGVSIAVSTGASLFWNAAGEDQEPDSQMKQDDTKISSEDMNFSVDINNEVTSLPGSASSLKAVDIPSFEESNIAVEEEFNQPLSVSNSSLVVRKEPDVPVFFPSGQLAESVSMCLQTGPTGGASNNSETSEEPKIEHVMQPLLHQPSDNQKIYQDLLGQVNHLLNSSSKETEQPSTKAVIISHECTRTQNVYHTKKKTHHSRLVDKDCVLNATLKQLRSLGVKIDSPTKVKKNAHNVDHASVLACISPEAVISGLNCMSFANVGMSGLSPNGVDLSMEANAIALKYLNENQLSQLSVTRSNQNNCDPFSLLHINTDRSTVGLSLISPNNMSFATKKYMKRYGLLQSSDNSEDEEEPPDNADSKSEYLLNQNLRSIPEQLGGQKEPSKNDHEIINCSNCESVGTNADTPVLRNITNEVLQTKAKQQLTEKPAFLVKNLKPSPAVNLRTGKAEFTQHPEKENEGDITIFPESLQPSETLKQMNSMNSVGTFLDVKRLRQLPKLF
Put plainly: pull-down; GST-hSTIL bound to GSH resin, incubated with 6xHis-hPlk4 (a.a. 1–416) with or without 10 µM ATP at 33°C for two hours, then with Flag-CPAP TCP domain for 2 hr at 4°C in 50 mM Na-HEPES pH 7.5, 400 mM NaCl, 2 mM MgCl2, 1 mM EGTA, 1 mM DTT, 0.15% Triton-X 100, 0.5 mg/ml BSA; immunoblot. As to conditions: both partners purified.

The target in assay [5] is T2, Recombinant full-length GST-STIL S428A, not phosphorylated (human, UniProt Q15468 1-1287, S428A).
T2 construct: STIL, human, full length; also called S428A GST-STIL; source: SF9 insect cells (Bac-to-Bac), purified (Glutathione Sepharose); incubated with 6xHis-hPlk4 (a.a. 1–416) without ATP; not shown: GST, N-terminal, kept
T2 sequence (looked up): T1 sequence (looked up) with S428A
Described as above. The note with it: both partners purified.

The target in assay [6] is T3, Recombinant full-length GST-STIL S428A phosphorylated in vitro by the His-PLK4 kinase domain (human, UniProt Q15468 1-1287, S428A, phosphorylated at multiple sites by the 6xHis-PLK4 kinase domain (not at 428)).
T3 construct: STIL, human, full length; also called S428A GST-STIL; source: SF9 insect cells (Bac-to-Bac), purified (Glutathione Sepharose); phosphorylated on beads by 6xHis-hPlk4 (a.a. 1–416) with ATP; not shown: GST, N-terminal, kept
T3 sequence (looked up): T1 sequence (looked up) with S428A
The description is as above. As to conditions: both partners purified.

Residue numbers refer to the chain shown, from its start.

Molecule Ana2 WT Ana2 + DmPLK4SBM-mCherry had a fold change with DmSas4 of more than 6.
In the case of “STIL (from UniProt Q15468) GST-STIL S428A, PLK4 + ATP”, the “binding against the reference” value in assay [1] (reference: WT GST-STIL, PLK4 + ATP) was “weaker”.
The molecule “STIL (from UniProt Q15468) Myc-GFP-STIL S428A” came in with an other: percent reduction of CPAP at foci with CPAP [2] of more than 90%.
Take “STIL (from UniProt Q15468) STIL S428A + kinase-active PLK4∆24-mCherry”: the “binding against the reference” value in the assay with CPAP [3] (reference: WT STIL + kinase-active PLK4∆24-mCherry) is “weaker”.
In the case of “STIL (from UniProt Q15468) WT GST-STIL + His-PLK4 kinase domain + ATP”, the fold change in assay [1] (reference: WT GST-STIL + His-PLK4 kinase domain, no ATP) worked out at 2.5.
For “STIL (from UniProt Q15468) WT STIL + kinase-active PLK4∆24-mCherry”, the fold change with CPAP [3] (reference: WT STIL + kinase-dead PLK4∆24-mCherry) is more than 7.

B1: Flag-CPAP TCP domain (aa 1142–1338) (domain or fragment, human, UniProt Q9HC77 1142-1338, looked up)
chain: EEEEDQDIQGEISHPDGKVEKVYKNGCRVILFPNGTRKEVSADGKTITVTFFNGDVKQVMPDQRVIYYYAAAQTTHTTYPEGLEVLHFSSGQIEKHYPDGRKEITFPDQTVKNLFPDGQEESIFPDGTIVRVQRDGNKLIEFNNGQRELHTAQFKRREYPDGTVKTVYANGHQETKYRSGRIRVKDKEGNVLMDTEL
notes: CPAP (CENPJ), human, TCP domain, residues 1142–1338; Expressed as GST-Flag-CPAP TCP; also called Flag-TCP domain; Flag-TCP; source: E. coli Rosetta (DE3), purified; not shown: FLAG, N-terminal, kept
In the case of B1, in assay [4], the “fold increase in binding, phosphorylated against unphosphorylated GST-STIL” value was approximately 2.5 fold. Besides, the binding result in assay [5] and in assay [6] was “binds” each time.
